Literature values as cited in publication PMC2645924.

Key:
Cys165 = Cys165 (UniProt position 166, HPGEVCPAKWK); assay: chemical modification; details: Reduced mutant proteins
Cys46 = Cys46 (UniProt position 47, DFTFVCPTELG); assay: chemical modification; details: Reduced mutant proteins
Cys32 = Cys32 (UniProt position 33, FWAEWCGPCKM)

For “AhpC C46S mutant (only C165 remains) (Salmonella typhimurium; C46S)”, the pKa (Cys165) is given as 8.7.
In the case of “AhpC C165S mutant (only C46 remains) (Salmonella typhimurium; C165S)”, the pKa (Cys46) is given as “less than 5”.
For Thioredoxin (Escherichia coli), the pKa (Cys32) is listed as 6.7 – 7.1.
